# B1: TWEAK: Human recombinant tumor necrosis factor-like weak inducer of apoptosis, purchased from PeproTech (protein, UniProt O43508 94-249, looked up)
# Tumor necrosis factor ligand …: SAPKGRKTRARRAIAAHYEVHPRPGQDGAQAGVDGTVSGWEEARINSSSPLRYNRQIGEFIVTRAGLYYLYCQVHFDEGKAVYLKLDLLVDGVLALRCLEEFSATAASSLGPQLRLCQVSGLLALRPGSSLRIRTLPWAHLKAAPFLTYFGLFQVH
# Experiments:
# Type in all cases: cell-based, Human
# H1975 cells = experiment: Clonogenic (colony-formation) assay
# Procedure: (§1) FIGS. 6A-6F illustrate that TWEAK-induced NSCLC cell survival is dependent on Mcl-1 expression. H1975 (FIG. 6A) and H2073 (FIG. 6B) cells were transfected with luciferase (siCont) or siRNAs targeting Mcl-1. Total lysates were collected 72 hours post-transfection and immunoblotted for Mcl-1 and alpha-tubulin. H1975 (FIGS. 6C and 6E) and H2073 (FIGS. 6D and 6F) cells transfected with control or siRNA constructs targeting Mcl-1 were exposed to 1 μM cisplatin for 24 hours (FIGS. 6C and 6D) or 2Gy ionizing radiation (FIGS. 6E and 6F)±pre-incubation with TWEAK (100 ng/mL). Cells were sparsely seeded into 6-well dishes and allowed to grow for 7 days prior to staining with crystal violet and colony counting. A colony was defined as containing at least 50 cells. Bars represent average of three independent wells±standard error with the non-treated (first bar) set to 1. * represents a p value <0.05 by ANOVA with Bonferroni posttest.
# H1975 (FIG. 7A) and H2073 (FIG. 7B) cells were transfected with luciferase (siCont) or siRNA targeting Bcl-xL. Total lysates were collected 72 hours post-transfection and immunoblotted for Bcl-xL and alpha-tubulin. H1975 (FIGS. 7C and 7E) and H2073 (FIGS. 7D and 7F) cells transfected with control or siRNA construct targeting Bcl-xL were exposed to 1 μM cisplatin for 24 hours (FIGS. 7C and 7D) or 2Gy ionizing radiation (FIGS. 7E and 7F)±pre-incubation with TWEAK (100 ng/mL). Cells were sparsely seeded into 6-well dishes and allowed to grow for 7 days prior to staining with crystal violet and colony counting. A colony was defined as containing at least 50 cells. Bars represent average of three independent wells±standard error with the non-treated (first bar) set to 1. * represents a p value <0.05 by ANOVA with Bonferroni posttest.
# H1975 (FIGS. 11A and 11B) cells were pre-incubated with TWEAK (100 ng/mL), (FIG. 11A) EU-5148 (10 μM), (FIG. 11B) ABT-737 (10 […]) or both drug and TWEAK prior to exposure to 2Gy ionizing radiation. Cells were sparsely seeded (125 cells) into 6-well dishes and allowed to grow for 7 days prior to staining with crystal violet and colony counting. A colony was defined as containing at least 50 cells. Bars represent average of three independent wells±standard error with the non-treated (first bar) set to 1. * represents a p value <0.05 by ANOVA with Bonferroni posttest.
# FIGS. 12A-12C illustrate that pharmacologic inhibition of Mcl-1 abrogates TWEAK-mediated cell survival. […]
# Observations of colony forming capacity following cytotoxic insult were performed as previously described (Franken N A, Rodermond H M, Stap J, Haveman J, van Bree C. Clonogenic assay of cells in vitro. Nat Protoc. 2006; 1:2315-9). […] Cells were then trypsinized, quantified, and equally dispersed in triplicate in 6-well cell culture dishes at 250 cells per well. […]
# H2073 cells = experiment: Clonogenic (colony-formation) assay
# Procedure: as §1, with “Bars represent average of three independent wells±standard error with the non-treated (first bar) set to 1. * represents a p value <0.05 by ANOVA with Bonferroni posttest.” left out
# Observations of colony forming capacity following cytotoxic insult were performed as previously described (Franken N A, Rodermond H M, Stap J, Haveman J, van Bree C. Clonogenic assay of cells in vitro. Nat Protoc. 2006; 1:2315-9). […] Cells were then trypsinized, quantified, and equally dispersed in triplicate in 6-well cell culture dishes at 250 cells per well. […] Apparent colonies were counted. […] Statistical significance, defined as a p value <0.05, was determined by ANOVA analysis with Bonferroni posttests in Graphpad Prism.
# [1] = tested on: cleaved-PARP in H1975 cells; experiment: Cleaved-PARP immunoblot (apoptosis)
# Procedure: FIGS. 8A and 8B illustrate that depletion of Mcl-1 abrogates TWEAK-induced protection from cell death induced by DNA damage. H1975 cells were transfected with either siRNA targeting luciferase (control) or Mcl-1. Cells were exposed to 5 uM cisplatin (FIG. 8A) or 8Gy radiation (FIG. 8B) for 0, 4 or 24 hours±pre-incubation with TWEAK (100 ng/mL). Total cell lysates were prepared and immunoblotted for cleaved-PARP (cPARP) and GAPDH as a loading control. All blots were run in duplicate.
# Mcl-1, Bcl-2, Bcl-xL, phospho-p65 (Serine residue 536), Bak, GAPDH, and cleaved-PARP antibodies were obtained from Cell Signaling Technology Inc. (Beverly, Mass.), and α-tubulin antibody was obtained from Millipore (San Diego, Calif.). Human recombinant TWEAK was purchased from PeproTech (Rock Hill, N.J.), and cisplatin was obtained from TZS Chemical via BIOTANG Inc. (Waltham, Mass.). The Mcl-1-specific inhibitor EU-5148 was kindly provided by Eutropics Pharmaceuticals (Cambridge, Mass.). ABT-737 was obtained from Selleck Chemicals (Houston, Tex.). […]
# [2] = tested on: Mcl-1 and Bcl-xL mRNA in H1975 cells; experiment: qPCR of Mcl-1 and Bcl-xL mRNA after TWEAK; settings: H1975, TWEAK 100 ng/mL, maximal at about 6 hours
# Procedure: (§2) FIGS. 5A and 5B illustrate that TWEAK exposure enhances Mcl-1 and Bcl-xL mRNA expression. Total RNA was collected from (FIG. 5A) H1975 and (FIG. 5B) H2073 cells treated with 100 ng/mL TWEAK for the indicated time points. mRNA expression of Mcl-1 and Bcl-xL were determined by qPCR with histone H3.3 mRNA levels used as endogenous control. Bars represent the average±standard error of triplicate qPCR reactions. * represents a p value <0.05 compared to no treatment (of the respective gene) by Student's t test. All assays were run in duplicate.
# (§3) Human lung adenocarcinoma cell lines H1975 and H2073 (ATCC, Manassas, Va.) were maintained in RPMI 1640 media (Invitrogen, Carlsbad, Calif.) plus 10% heat-inactivated fetal bovine serum (FBS) in a 37° C., 5% CO2 atmosphere. […]
# (§4) mRNA expression was determined by qPCR as previously described (Fortin Ensign S P, Mathews I T, Eschbacher J M, Loftus J C, Symons M H, Tran N L. The Src homology 3 domain-containing guanine nucleotide exchange factor is overexpressed in high-grade gliomas and promotes tumor necrosis factor-like weak inducer of apoptosis-fibroblast growth factor-inducible 14-induced cell migration and invasion via tumor necrosis factor receptor-associated factor 2. J Biol Chem. 2013; 288:21887-97). […]
# [3] = tested on: Mcl-1 and Bcl-xL mRNA in H2073 cells; experiment: qPCR of Mcl-1 and Bcl-xL mRNA after TWEAK; settings: H2073, TWEAK 100 ng/mL, maximal at about 6 hours
# Procedure: as §2, §3, §4
# [4] = tested on: phosphorylated p65, Mcl-1, Bcl-xL in H2073 cells; experiment: Immunoblot after TWEAK treatment; settings: H2073, TWEAK 100 ng/mL
# Procedure: (§5) FIGS. 4A-4C illustrate that TWEAK induces Mcl-1 in NSCLC cell lines in an NF-κB-dependent manner. Total cell lysates were prepared from serum-reduced (FIG. 4A) H1975 and (FIG. 4B) H2073 cell lines treated with TWEAK for the indicated times and immunoblotted with the indicated antibodies: Mcl-1, Bcl-xL, and phosphorylated-p65 (Ser536). Tubulin was used as a loading control. (FIG. 4C) Serum-reduced H2073 cells transfected±IkBα mutant were treated with TWEAK for 24 hours. Cells were harvested, total cell lysates were prepared and immunoblotted with the indicated antibodies to both Mcl-1 and phospho-p65. All blots were run in duplicate and tubulin was used as a loading control.
# (§6) Human lung adenocarcinoma cell lines H1975 and H2073 (ATCC, Manassas, Va.) were maintained in RPMI 1640 media (Invitrogen, Carlsbad, Calif.) plus 10% heat-inactivated fetal bovine serum (FBS) in a 37° C., 5% CO2 atmosphere. SU-DHL10 (Deng J, Carlson N, Takeyama K, Dal Cin P, Shipp M, Letai A. BH3 profiling identifies three distinct classes of apoptotic blocks to predict response to ABT-737 and conventional chemotherapeutic agents. Cancer Cell. 2007; 12:171-85), Bcl-2 1863 and Mcl-1 1780 cell lines (Ryan J A, Brunelle J K, Letai A. Heightened mitochondrial priming is the basis for apoptotic hypersensitivity of CD4+CD8+ thymocytes. Proc Natl Acad Sci USA. 2010; 107:12895-900) were maintained in RPMI 1640 plus 10% FBS with 50 μM β-mercaptoethanol added to 1863 and 1780 cells. In all assays treated with TWEAK, cells were cultured in reduced serum (0.5% FBS) for 16 hours prior to stimulation with TWEAK at 100 ng/mL in RPMI+0.1% bovine serum albumin (BSA) for the indicated times.
# (§7) Mcl-1, Bcl-2, Bcl-xL, phospho-p65 (Serine residue 536), Bak, GAPDH, and cleaved-PARP antibodies were obtained from Cell Signaling Technology Inc. (Beverly, Mass.), and α-tubulin antibody was obtained from Millipore (San Diego, Calif.). Human recombinant TWEAK was purchased from PeproTech (Rock Hill, N.J.), and cisplatin was obtained from TZS Chemical via BIOTANG Inc. (Waltham, Mass.). The Mcl-1-specific inhibitor EU-5148 was kindly provided by Eutropics Pharmaceuticals (Cambridge, Mass.). ABT-737 was obtained from Selleck Chemicals (Houston, Tex.). Immunoblot analysis was performed as previously described (Whitsett T G, Cheng E, Inge L, Asrani K, Jameson N M, Hostetter G, et al. Elevated expression of Fn14 in non-small cell lung cancer correlates with activated EGFR and promotes tumor cell migration and invasion. Am J Pathol. 2012; 181:111-20; Tran N L, McDonough W S, Savitch B A, Sawyer T F, Winkles J A, Berens M E. The tumor necrosis factor-like weak inducer of apoptosis (TWEAK)-fibroblast growth factor-inducible 14 (Fn14) signaling system regulates glioma cell survival via NFkB pathway activation and BCL-XL/BCL-W expression. J Biol Chem. 2005; 280:3483-92).
# [5] = tested on: phosphorylated p65, Mcl-1, Bcl-xL, Bcl-2 in H1975 cells; experiment: Immunoblot after TWEAK treatment
# Procedure: as §5, §6, §7
molecule,measurement,setting,value
CN(C)CC[C@H](CSc1ccccc1)Nc1ccc(S(=O)(=O)NC(=O)c2ccc(N3CCN(Cc4ccccc4-c4ccc(Cl)cc4)CC3)cc2)cc1[N+](=O)[O-] [ABT-737],effect on TWEAK-induced cell survival,"H1975 cells; H1975, drug 10 μM plus TWEAK 100 ng/mL, 2Gy ionizing radiation",lesser effect on TWEAK-induced cell survival
same,"sensitivity to radiation (cell survival, colony count)","H1975 cells; H1975, drug 10 μM pre-incubation, 2Gy ionizing radiation",did sensitize H1975 cells to radiation
"N.N.[Cl][Pt][Cl] [cisplatin, reference compound]",cell survival (colony formation),"H1975 cells; H1975, 1 μM cisplatin",significantly reduced NSCLC cell survival
same,cell survival (colony formation),"H2073 cells; H2073, 1 μM cisplatin",significantly reduced NSCLC cell survival
same,protein expression of cleaved-PARP,"[1]; H1975, 5 uM cisplatin, 0, 4 or 24 hours",induces protein expression of cleaved-PARP over time
B1,cell survival after cisplatin or radiation with TWEAK pre-treatment,"H1975 cells; H1975, TWEAK 100 ng/mL, 1 μM cisplatin or 2Gy",significantly attenuated the effects of either cisplatin or radiation
same,cell survival after cisplatin or radiation with TWEAK pre-treatment,"H2073 cells; H2073, TWEAK 100 ng/mL, 1 μM cisplatin or 2Gy",significantly attenuated the effects of either cisplatin or radiation
same,maximal increase of Mcl-1 and Bcl-xL mRNA levels,[2],10 fold
same,maximal increase of Mcl-1 and Bcl-xL mRNA levels,[3],50 fold
same,induction of cleaved-PARP with TWEAK pretreatment,"[1]; H1975, TWEAK 100 ng/mL, 5 uM cisplatin or 8Gy radiation, 4 or 24 hours",completely abrogates the induction of cleaved-PARP
same,phosphorylated p65 (P-p65),[4],clear induction
same,protein expression of Mcl-1 and Bcl-xL over time,[4],incremental increases
same,phosphorylated p65 (P-p65),"[5]; H1975, TWEAK 100 ng/mL",clear induction
same,protein expression of Mcl-1 and Bcl-xL over time,"[5]; H1975, TWEAK 100 ng/mL",incremental increases
same,protein expression of Bcl-2,"[5]; H1975, TWEAK exposure",up-regulated

# — patent US20160130654A1, “SYSTEMS AND METHODS FOR DIAGNOSING AND TREATING CANCER” (THE TRANSLATIONAL GENOMICS RESEARCH INSTITUTE, priority 2013, published 2016)
